Measurements taken from the nanobody polyreactivity screen of Harvey et al. (2022).

Assay: yeast display, Sf9 membrane polyspecificity reagent, FACS + sequencing; frameworks hold sequencing errors
Outline: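 In a synthetic yeast display library (Saccharomyces cerevisiae BJ5465), nanobody expression was induced with galactose for 36–48 hours. FACS gates were set low and high (top ~1%) using anti-HA fluorescence for expression and streptavidin fluorescence for binding of the Sf9 membrane reagent. Each polyreactivity label is drawn from the gate of origin.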

Sequence	polyreactivity (PSR sort gate)
QVQLVESGGGLVQAGGSLRLSCAASGSIFYHYAMGWYRQAPGKERELVAAISDRGTSTYYADSVKGRFTISRDNAKNTVYLQMNSLKPEDTAVYYCAAEGSLNSFYYSYYYWGQGTQVTVSS	high polyreactivity
QDQLVESGGGLVQAGGSLRLSCAASGFTFGYYVMGWYRQAPGKERELVAAITQRGGSTYADSVKGRFTISRDNAKNTVYLQMNSLKPEDTAVYYCAAPIYNGYASWQVYYWGQGTQVTVSS	high polyreactivity
QVHLVESGGGFVQAGGSLRVSCAASRRIYNLNAMGWYRQAPGKERELVAAISKSGTRTYYADSVKGRFTISRDNAKNTVYLPMNSLKPEDTAVYSCAARRSSVTQSTTYPAVRQRYGYWGQGTQVTVSS	high polyreactivity
QVQLVESGGGLVQAGGSLRLSCAASGSTFAYYAMGWYRQAPGKERELVAVISVRGGSTYYADSVKGRFTISRDNAKNTVYLQMNSLKPEDTAVYYCAADTFAGYYYWGQGTQVTVSS	high polyreactivity
QVQLVESGGGLVQAGGSLRLSCAASGSTFSLYAMGWYRQAPGKERELVAAISSGGRTYYADSVKGRFTISRDNAKNTVYLQMNSLKPEVTAVYYCAVYVAYLYSYYYWGQGTQVTVSS	low polyreactivity
QVQLVESGGGLVQAGGSLRLSCAASGRTFHGYAMRWYRQAPGKDRELVAAITSSGARTYYADSVKGRFTISRDNAKNTVYLQMNSLKPEDTACYYCNAEYYSTWYRFDYWGQGTQVTVSS	high polyreactivity
QEQLQEIGGRLEQAGGSLRLSCAASGYITYIGTMGWYRHAPGKEREFVATIVVGSTTNYADSVKGRFTISRDNAKNTVYLQPESGRYRGVLLRGWLLAVGKFTYWGQGTQETVSS	low polyreactivity
QVQLVESGGGLVQAGGSLRLSCAASGSIFRSYAMGWYRQAPGKERELVASISRRGGSTYYADSVKGRFTISRDNAKNTVYLQMNSLKPEDTAVYYCAADHYHGYWKYDYWGQGTQVTVSS	low polyreactivity
QVQLVESGGGLVQAGGSLRLSCAASGRTFGTYAMGWYRQAPGKERELVAVITNGGGTYYADSVKGRFTISRDNAKNTVYLQMNSLKPEDTAVYYCNTDRYGLRRWVYSYWGGYDYWGQGTQVTVSS	low polyreactivity
QVQRVESGGGLVQAGGSLRLSCAASGSTFARYAMGWYRQAPGKEREFVAAITYSGGRTYYADTVKGRFTISRDNAKNTVYLQMNSLKPEDTAVYYCAARRRYRYDYWGQGTQVTVSS	high polyreactivity
QVQLVESGGGLVQAGGSLRLSCAASGFTFYQYAMGWYRQAPGKERELVAAITWNGGSTYYADSVKGRFTISRDNAKNTVYLQMNSLKPEDTAVYYCAAESPSKFDYDYWGQGTQVTVSS	high polyreactivity
QVQLVESGGGLVQAGGSLRLSCAASGSTFYANAMGWYRQAPGKERELVADISFSGASTFYADSVKGRFTISRDNAKNTVYLQMNSLKPEDTAVYYCATDNPSVVGFDYWGQGTQVTVSS	low polyreactivity
QVQLQERAAWCRRAGSLRLSCAASGNISDYYFMGWYRQAPGKERELVAAIAPGSNTYYADSVKGRFTISRDNAKNTVYLQMNSLKPEDTAVCFCAADSTQYTWFDYWGQGTQVTVSS	low polyreactivity
QVQRVESGGGLFQAGGSLRLSCAASGSTFGYYAMGWYRQAPGKERELVPAISGSGTSTNYADSVKGRITISRDNAKNTVYLQMNSLKPEDTAVYYCATRYRYTGGGYYYRGQGTQVTVSS	low polyreactivity
QVQLVESGGGLVQAGGSLRLSCAASGSTFEYNAMGWYRQAPGKERELVAAISRTANANYADSVKGRFTISRDNAKNTFYLQMNSLKPEETAVYYCAADFLDSKVHVRFGYWGQGTQVTVSS	low polyreactivity
QVQLVESGGGLVQAGGSLRLSCAASGFTFRYYAMGWYRPAPGKERELVAAISSRGGSTYYADSVKGRFTISRDNAKNTVYLQINSLKPEDTAVYYCAVVRWRHYIFATYDYWGQGTQVTVSS	high polyreactivity
QVQLVESGGVLVQAGGSLRLSCAASGSTFPRNAMGWYRQAPGKERELVAAISGRGVRTYYADSVKGRFTISRDNAKNTVYLQMNSLKPEDTAVYYCAAERQPYRTSSYNYWGQGTQVTVSS	high polyreactivity
